Molecular target: mesothelin on RH29 mesothelioma cells (V and M variant ratio 50:50) (human) (UniProt Q13421)
Assay: cell-based or functional assay

Chain of mesothelin on RH29 mesothelioma cells (V and M variant ratio 50:50) (human) (Q13421 other isoform, or with tags, fused parts or gaps mutant limits assumed): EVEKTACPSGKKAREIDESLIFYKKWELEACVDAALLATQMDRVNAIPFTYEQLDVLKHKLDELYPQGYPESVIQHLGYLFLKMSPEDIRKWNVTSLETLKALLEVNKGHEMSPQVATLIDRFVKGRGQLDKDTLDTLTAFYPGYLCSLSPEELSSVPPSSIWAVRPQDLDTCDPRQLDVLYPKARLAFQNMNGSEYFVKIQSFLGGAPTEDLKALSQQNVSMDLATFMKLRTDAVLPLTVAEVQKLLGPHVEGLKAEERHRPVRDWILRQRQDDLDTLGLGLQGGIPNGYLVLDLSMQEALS

B1: 15B6 anti-mesothelin antibody (IgG2b) (antibody, V domains shown)
VH: EVQLQQSGPVLVKPGASVKISCKASGYSFTGYYMHWVRQSLVKRLEWIGRINPYTGVPSYKHNFKDKASLTVDKSSSTAYMELHSLTSEDSAVYYCARELGGYWGQGTTLTVSS
VL: QAVVTQESALTTSPGETVTLTCRSSTGAVTTGNYPNWVQEKPDHLFTGLIAGTNNRAPGVPARFSGSLIGDKAALTITGAQTEDEAIYFCALWFSSHWVFGGGTKLTVL
  decrease in mesothelin shedding from RH29 cells (ELISA of shed mesothelin, OD value): 50%

Source: patent US20200247901A1
